From patent US20260167737A1 (BIGHAT BIOSCIENCES, published 2026) come the findings set out here.

Assay [1] addresses T1, CDH17 (UniProt Q12864 23-787, limits assumed).
T1 construct: also called cadherin 17
T1 sequence (looked up): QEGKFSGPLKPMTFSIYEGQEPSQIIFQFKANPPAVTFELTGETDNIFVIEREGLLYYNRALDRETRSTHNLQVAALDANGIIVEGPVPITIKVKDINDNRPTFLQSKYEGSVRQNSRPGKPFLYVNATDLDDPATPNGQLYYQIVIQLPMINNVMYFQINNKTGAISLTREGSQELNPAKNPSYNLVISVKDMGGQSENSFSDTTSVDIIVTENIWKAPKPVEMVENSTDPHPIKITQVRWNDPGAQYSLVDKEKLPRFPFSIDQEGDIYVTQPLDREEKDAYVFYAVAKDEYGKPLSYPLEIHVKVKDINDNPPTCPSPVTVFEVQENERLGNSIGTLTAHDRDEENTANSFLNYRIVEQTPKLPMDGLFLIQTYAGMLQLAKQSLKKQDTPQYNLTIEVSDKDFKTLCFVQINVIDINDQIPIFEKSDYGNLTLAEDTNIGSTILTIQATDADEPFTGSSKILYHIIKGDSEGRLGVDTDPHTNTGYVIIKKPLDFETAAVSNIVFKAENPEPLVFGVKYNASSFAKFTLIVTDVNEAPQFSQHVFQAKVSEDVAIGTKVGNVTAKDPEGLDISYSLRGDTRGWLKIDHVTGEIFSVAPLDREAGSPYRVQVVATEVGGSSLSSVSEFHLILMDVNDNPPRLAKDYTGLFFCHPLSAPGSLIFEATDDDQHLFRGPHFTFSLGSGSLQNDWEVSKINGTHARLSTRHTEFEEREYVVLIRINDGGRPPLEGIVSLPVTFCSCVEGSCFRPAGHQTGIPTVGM

Assay [2] deals with CDH17 on SNU16 cells (UniProt Q12864).
In assay [3] the target is T1, CDH17. In words: method not stated; KD at pH 7.4.

In assay [1], isotype vedotin (Fc fusion) displayed a cytotoxicity IC50 of the negative control (no asterisk: isotype control vedotin ADC), AsPC1 (PDAC) cells of more than 100 nM; a cytotoxicity IC50 of the negative control (no asterisk: isotype control vedotin ADC), CAPAN2 (PDAC) cells (ABC <LLOD) of more than 100 nM; a cytotoxicity IC50 of the negative control (no asterisk: isotype control vedotin ADC), LoVo (CRC) cells (ABC <LLOD) of more than 100 nM; a cytotoxicity IC50 of the negative control (no asterisk: isotype control vedotin ADC), NCI-H508 (CRC) cells of 0.301 nM. In assay [1], the cytotoxicity IC50 of the negative control (no asterisk: isotype control vedotin ADC), SW403 (CRC) cells is more than 100 nM and the cytotoxicity IC50 of the negative control (no asterisk: isotype control vedotin ADC), SW837 (CRC) cells (ABC <LLOD) is more than 100 nM. In assay [2], the cytotoxicity IC50 of the negative control (no asterisk: isotype control vedotin ADC), SNU16 (gastric) cells is more than 100 nM.

B1: CDH17_vhh_0677 (VHH)
VHH: QVQLQESGGGLVQPGGSTRLSCVSSRTFSYYDMGWFRQAPGKEREFVALLSWRGNNAEYSDDVMGRFTVSRGNTQNSVNLQMNNLKPEDTGIYYCAVTYGKARSVRSWGQGTQVTVSS
B1: binding in assay [3] was characterised by a dissociation constant (Kd) of 2.65 nM.

B2: CDH17_vhh_0950 (VHH)
VHH: QVQLQESGGGLVQPGGSTRLSCVSSRTFSYYDMGWFRQAPGKEREFVALLSWRGNNSEYSDSVHGRFTVSRGNTQNSVNLQMNNLKPEDTGIYYCAVTYGGARSVRLWGQGTQVTVSS
For the molecule B2, binding in assay [3] was characterised by a dissociation constant (Kd) of 3.81 nM.

B3: CDH17_vhh_0949 (VHH)
VHH: QVQLQESGGGLVQPGGSTRLSCVSSRTFSYYDMGWFRQAPGKEREFVALLSWRGNNAEYSDDVMGRFTVSRGNTQNSVNLQMNNLKPEDTGIYYCAVTYGKARSVRLWGQGTQVTVSS
For B3, binding in assay [3] was characterised by a dissociation constant (Kd) of 2.01 nM.

B4: CDH17_vhh_0946 (VHH)
VHH: QVQLQESGGGLVQPGGSTRLSCVSSRTFSYYDMGWFRQAPGKEREFVALLSWRGNNAEYSDFVMGRFTVSRGNTQNSVNLQMNNLKPEDTGIYYCAVTYGVARSVRLWGQGTQVTVSS
With B4, binding in assay [3] was characterised by a dissociation constant (Kd) of 2.04 nM.

B5: CDH17_vhh_0948 (VHH)
VHH: QVQLQESGGGLVQPGGSTRLSCVSSRTFSYYDMGWFRQAPGKEREFVALLSWRGNNAEYSDDVHGRFTVSRGNTQNSVNLQMNNLKPEDTGIYYCAVTYGGARSVRLWGQGTQVTVSS
As for B5, in assay [3], the dissociation constant (Kd) (commonly a measure of binding affinity in units of concentration) was found to be 3.94 nM.

B6: CDH17_vhh_0951 (VHH)
VHH: QVQLQESGGGLVQPGGSTRLSCVSSRTFSYYDMGWFRQAPGKEREFVALLSWRGNNAEYSDDVMGRFTVSRGNTQNSVNLQMNNLKPEDTGIYYCAVTYGTARSVRLWGQGTQVTVSS
For B6, the Kd in assay [3] worked out at 1.81 nM.

B7: CDH17_vhh_0945 (VHH)
VHH: QVQLQESGGGLVQPGGSTRLSCVSSRTFSYYDMGWFRQAPGKEREFVALLSWRGNNAEYSDSVHGRFTVSRGNTQNSVNLQMNNLKPEDTGIYYCAVTYGVARSVRLWGQGTQVTVSS
B7: the affinity in assay [3], expressed as Kd, was 2.15 nM.

B8: CDH17_vhh_0688 (VHH)
VHH: QVQLQESGGGLVQPGGSTRLSCVSSRTFSYYDMGWFRQAPGKEREFVALLSWRGNNAEYSDDVMGRFTVSRGNTQNSVNLQMNNLKPEDTGIYYCAVTYGNARSVRSWGQGTQVTVSS
B8 came in with a Kd in assay [3] of 5.43 nM.

B9: CDH17_vhh_0952 (VHH)
VHH: QVQLQESGGGLVQPGGSTRLSCVSSRTFSYYDMGWFRQAPGKEREFVALLSWRGNNAEYSDDVMGRFTVSRGNTQNSVNLQMNNLKPEDTGIYYCAVTYGNARSVRLWGQGTQVTVSS
B9 had a Kd in assay [3] of 2.61 nM.

B10: CDH17_vhh_0689 (VHH)
VHH: QVQLQESGGGLVQPGGSTRLSCVSSRTFSYYDMGWFRQAPGKEREFVALLSWRGNNAEYSDFVMGRFTVSRGNTQNSVNLQMNNLKPEDTGIYYCAVTYGGARSVRLWGQGTQVTVSS
In turn, B10 came in with a dissociation constant Kd in assay [3] of 4.83 nM.
